Data: paper PMC12501005

T1: AflR-DBD (15-79) (Aspergillus flavus, UniProt P41765 15-79)
T1 sequence: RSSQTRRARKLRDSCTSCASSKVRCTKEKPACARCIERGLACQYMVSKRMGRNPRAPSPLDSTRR

T2: AflR 15-57 (Aspergillus flavus, UniProt P41765 15-57)
T2 chain: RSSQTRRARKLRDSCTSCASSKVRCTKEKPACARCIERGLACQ

T3: AflR 28-57 (Aspergillus flavus, UniProt P41765 28-57)
T3 chain: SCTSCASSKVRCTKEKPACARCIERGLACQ

T4: AflR 8-98 (Aspergillus flavus, UniProt P41765 8-98)
T4 sequence: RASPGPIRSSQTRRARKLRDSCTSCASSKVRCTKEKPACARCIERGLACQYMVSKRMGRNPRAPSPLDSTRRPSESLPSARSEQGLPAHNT

T5: AflR 15-69 (Aspergillus flavus, UniProt P41765 15-69)
T5 sequence: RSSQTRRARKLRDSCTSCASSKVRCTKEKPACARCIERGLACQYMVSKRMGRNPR

T6: AflR 26-79 (Aspergillus flavus, UniProt P41765 26-79)
T6 sequence: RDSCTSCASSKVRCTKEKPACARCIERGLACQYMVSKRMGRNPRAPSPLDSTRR


How the values were obtained:
AflR-DBD (15-79) [1] = biological target: T1, AflR-DBD (15-79); assay: EMSA
AflR 15-57 = biological target: T2, AflR 15-57; assay: EMSA
AflR 28-57 = biological target: T3, AflR 28-57; assay: EMSA
AflR-DBD (15-79) [2] = biological target: T1, AflR-DBD (15-79); assay: FCS
AflR 8-98 = biological target: T4, AflR 8-98; assay: FCS
AflR 15-69 = biological target: T5, AflR 15-69; assay: FCS
AflR 26-79 = biological target: T6, AflR 26-79; assay: FCS

Binder | binding result (AflR-DBD (15-79) [1]) | binding result (AflR 15-57) | binding result (AflR 28-57) | also measured
vbs inverted repeat (GCG to CCG) (dsDNA) DNA 1: ACCGACTCTCGGACACCGAGGCAGACCG DNA 2: CGGTCTGCCTCGGTGTCCGAGAGTCGGT | binds | – | – | –
vbs (dsDNA) DNA 1: ACCGACTCTCGGACAGCGAGGCAGACCG DNA 2: CGGTCTGCCTCGCTGTCCGAGAGTCGGT | – | no binding | no binding | –
norA (dsDNA) DNA 1: ACCGGGCTTTCGGAAAGCGATCAGCTTGT DNA 2: ACAAGCTGATCGCTTTCCGAAAGCCCGGT | – | no binding | no binding | –
ver1 (dsDNA) DNA 1: TCAGATATTTCGGTCTCCGAGGAAAGAT DNA 2: ATCTTTCCTCGGAGACCGAAATATCTGA | – | no binding | no binding | Kd (AflR-DBD (15-79) [2]): 401 ± 54.5 nM; Kd (AflR 8-98): 409 ± 137 nM; Kd (AflR 15-69): 1510 ± 250 nM; Kd (AflR 26-79): 4020 ± 594 nM
norA inverted repeat (GCG to CCG) (dsDNA) DNA 1: ACCGGGCTTTCGGAAACCGATCAGCTTGT DNA 2: ACAAGCTGATCGGTTTCCGAAAGCCCGGT | binds | – | – | –
